± gives the standard deviation of the averaged measurements.
System: ATP
Assay: switch fluorescence ratio, 500 uM ATP over buffer (Cy3 cluster intensity, sum of 5 cycles each) (fold (ratio)); higher = stronger signal-on switching upon ATP binding; sequences stand for … in TCGTCGGCAGCGTCAGATGTGTATAAGAGACAGTTTTTTTTTTTTTTTTTTTTTTTTT…TC
Details: aptamer strand: ATP DNA aptamer (quencher-CACCTGGGGGAGTATTGCGGAGGAAGG + anchor), 100 nM annealed; ATP concentration: 500 uM
Procedure, shortened: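 The quencher-labelled ATP aptamer, at 100 nM, was annealed to Cy3-labelled switching-strand clusters on a modified Illumina MiSeq flow-cell. The clusters were imaged in selection buffer, then after 15 min with 500 uM ATP at 22 °C, and this buffer/ATP cycle ran five times with NaOH stripping and re-annealing between runs. Per-cluster fluorescence ratios, summed target-cycle over summed buffer-cycle Cy3 intensity, were averaged per switch-domain sequence. Clusters outside 100-1000 RFU were excluded.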
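Also: ATP exposure 15 min at 22 °C before imaging.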

Row | Sequence | switch fluorescence ratio
1 | GGATGGTGGT | 1.01 ± 0.016
2 | GGATGTAAGA | 1.1 ± 0.18
3 | GGATGTATAG | 0.997 ± 0.052
4 | GGATTAAAGC | 0.998 ± 0.022
5 | GGATTACTCT | 1.0308 ± 0.00015
6 | GGATTACTGG | 1.03 ± 0.023
7 | GGATTAGCTT | 1.01 ± 0.051
8 | GGATTAGGTG | 1.12 ± 0.017
9 | GGATTAGTGT | 0.987 ± 0.032
10 | GGATTATCGG | 0.976 ± 0.023
11 | GGATTATGTC | 0.975 ± 0.039
12 | GGATTATTGG | 1.002 ± 0.0083
13 | GGATTCAGCT | 0.978 ± 0.027
14 | GGATTCGAAG | 0.9953 ± 0.0071
15 | GGATTCTAAT | 0.982 ± 0.01
16 | GGATTGATGT | 0.972 ± 0.011
17 | GGATTGGGGA | 1.02 ± 0.031
18 | GGATTGGTTG | 0.999 ± 0.038
19 | GGATTGTAAG | 0.991 ± 0.032
20 | GGATTGTAGG | 0.9738 ± 0.0053
21 | GGATTGTATT | 1.02 ± 0.0055
22 | GGATTGTGTT | 0.985 ± 0.0018
23 | GGATTGTTGG | 1.008 ± 0.0033
24 | GGATTGTTGT | 0.994 ± 0.022
25 | GGATTTACGC | 1.03 ± 0.03

Row | Sequence | switch fluorescence ratio
26 | GGATTTCAGG | 0.982 ± 0.017
27 | GGATTTCCAG | 0.999 ± 0.03
28 | GGATTTCTTA | 1 ± 0.025
29 | GGATTTGGTT | 1.04 ± 0.036
30 | GGATTTGTGG | 0.978 ± 0.023
31 | GGCAAAAACG | 1.16 ± 0.22
32 | GGCAAAGGGT | 1.06 ± 0.056
33 | GGCAACTGGG | 1.02 ± 0.05
34 | GGCACAGGGG | 1.91 ± 0.17
35 | GGCACGTGGG | 0.999 ± 0.017
36 | GGCACTAGGG | 0.94 ± 0.077
37 | GGCAGAGTGT | 1 ± 0.063
38 | GGCAGGGGAA | 1.01 ± 0.012
39 | GGCAGTGCGG | 1 ± 0.06
40 | GGCATAGTTT | 0.969 ± 0.026
41 | GGCATATCGT | 0.949 ± 0.041
42 | GGCATATGTA | 0.9829 ± 0.0076
43 | GGCATCCAGG | 1.38 ± 0.064
44 | GGCATGAGAC | 1.06 ± 0.047
45 | GGCATGGTGG | 1.01 ± 0.023
46 | GGCATTATAG | 0.999 ± 0.0097
47 | GGCATTGGAT | 0.962 ± 0.034
48 | GGCCAAGGTC | 1.004 ± 0.004
49 | GGCCAAGGTG | 2.05 ± 0.42
50 | GGCCACTGGA | 1.02 ± 0.021

Row | Sequence | switch fluorescence ratio
51 | GGCCAGGGGG | 1 ± 0.09
52 | GGCCATCTGG | 1.04 ± 0.026
53 | GGCCCACCCA | 1.02 ± 0.072
54 | GGCCCAGAAA | 1.003 ± 0.0097
55 | GGCCCCTATT | 1.023 ± 0.01
56 | GGCCCGGGGC | 0.995 ± 0.017
57 | GGCCCGGGGG | 1.01 ± 0.028
58 | GGCCCGGTGC | 1.08 ± 0.12
59 | GGCCCTACAG | 1.01 ± 0.036
60 | GGCCCTGCAG | 1.02 ± 0.042
61 | GGCCGAATGG | 1.03 ± 0.043
62 | GGCCGAGCTC | 1.012 ± 0.0085
63 | GGCCGCACGC | 3.69 ± 0.059
64 | GGCCGGGGGA | 1.03 ± 0.069
65 | GGCCGGGTTC | 1.01 ± 0.022
66 | GGCCGGTGGA | 1.02 ± 0.038
67 | GGCCGGTTGG | 0.9744 ± 0.0068
68 | GGCCGTAGAA | 0.985 ± 0.032
69 | GGCCGTTCAT | 0.972 ± 0.011
70 | GGCCTAAAGG | 1.005 ± 0.0082
71 | GGCCTCGACC | 1.03 ± 0.0086
72 | GGCCTGCCAT | 0.9813 ± 0.0095
73 | GGCGAAAACT | 1.073 ± 0.0052
74 | GGCGAAGTGC | 1.03 ± 0.013
75 | GGCGAGTGAG | 1.03 ± 0.029

Row | Sequence | switch fluorescence ratio
76 | GGCGAGTTT | 1 ± 0.021
77 | GGCGATGGGG | 0.979 ± 0.023
78 | GGCGATTGCG | 0.979 ± 0.0041
79 | GGCGATTGGA | 1 ± 0.016
80 | GGCGATTTTG | 0.958 ± 0.03
81 | GGCGCAGCAA | 1.47 ± 0.091
82 | GGCGCATAGG | 1.11 ± 0.02
83 | GGCGCATGTC | 1.14 ± 0.029
84 | GGCGCGATGG | 1.55 ± 0.13
85 | GGCGCTTAGA | 1 ± 0.053
86 | GGCGGAGGGT | 0.986 ± 0.03
87 | GGCGGATTGG | 1.02 ± 0.015
88 | GGCGGCATGG | 1.04 ± 0.023
89 | GGCGGCTGAG | 1 ± 0.067
90 | GGCGGGACGA | 0.973 ± 0.036
91 | GGCGGGAGGG | 0.986 ± 0.029
92 | GGCGGGGAAA | 0.981 ± 0.045
93 | GGCGGGGGAC | 0.987 ± 0.057
94 | GGCGGGGGCA | 0.995 ± 0.024
95 | GGCGGGGGCT | 0.99 ± 0.018
96 | GGCGGGTGAG | 1.03 ± 0.025
97 | GGCGGTAATG | 1.036 ± 0.005
98 | GGCGGTAGTG | 0.999 ± 0.025
99 | GGCGGTATAT | 0.99 ± 0.027
100 | GGCGGTATGT | 0.975 ± 0.028
